From article PMC5384083

Legend:
[1] = biological target: Retinoblastoma protein (Rb), endogenous (UniProt P06400); test: co-immunoprecipitation (IP GFP, western blot Rb) quantified with image J; settings: MCF7 cells; 3 independent experiments; parent: est. 32; read off a plot
CBP, endogenous [2] = biological target: CBP, endogenous (UniProt Q92793); test: co-immunoprecipitation (IP GFP, western blot CBP) quantified with image J; settings: MCF7 cells; 3 independent experiments; parent: est. 25; read off a plot
UniProt Q92793, sequence (Q92793 whole entry): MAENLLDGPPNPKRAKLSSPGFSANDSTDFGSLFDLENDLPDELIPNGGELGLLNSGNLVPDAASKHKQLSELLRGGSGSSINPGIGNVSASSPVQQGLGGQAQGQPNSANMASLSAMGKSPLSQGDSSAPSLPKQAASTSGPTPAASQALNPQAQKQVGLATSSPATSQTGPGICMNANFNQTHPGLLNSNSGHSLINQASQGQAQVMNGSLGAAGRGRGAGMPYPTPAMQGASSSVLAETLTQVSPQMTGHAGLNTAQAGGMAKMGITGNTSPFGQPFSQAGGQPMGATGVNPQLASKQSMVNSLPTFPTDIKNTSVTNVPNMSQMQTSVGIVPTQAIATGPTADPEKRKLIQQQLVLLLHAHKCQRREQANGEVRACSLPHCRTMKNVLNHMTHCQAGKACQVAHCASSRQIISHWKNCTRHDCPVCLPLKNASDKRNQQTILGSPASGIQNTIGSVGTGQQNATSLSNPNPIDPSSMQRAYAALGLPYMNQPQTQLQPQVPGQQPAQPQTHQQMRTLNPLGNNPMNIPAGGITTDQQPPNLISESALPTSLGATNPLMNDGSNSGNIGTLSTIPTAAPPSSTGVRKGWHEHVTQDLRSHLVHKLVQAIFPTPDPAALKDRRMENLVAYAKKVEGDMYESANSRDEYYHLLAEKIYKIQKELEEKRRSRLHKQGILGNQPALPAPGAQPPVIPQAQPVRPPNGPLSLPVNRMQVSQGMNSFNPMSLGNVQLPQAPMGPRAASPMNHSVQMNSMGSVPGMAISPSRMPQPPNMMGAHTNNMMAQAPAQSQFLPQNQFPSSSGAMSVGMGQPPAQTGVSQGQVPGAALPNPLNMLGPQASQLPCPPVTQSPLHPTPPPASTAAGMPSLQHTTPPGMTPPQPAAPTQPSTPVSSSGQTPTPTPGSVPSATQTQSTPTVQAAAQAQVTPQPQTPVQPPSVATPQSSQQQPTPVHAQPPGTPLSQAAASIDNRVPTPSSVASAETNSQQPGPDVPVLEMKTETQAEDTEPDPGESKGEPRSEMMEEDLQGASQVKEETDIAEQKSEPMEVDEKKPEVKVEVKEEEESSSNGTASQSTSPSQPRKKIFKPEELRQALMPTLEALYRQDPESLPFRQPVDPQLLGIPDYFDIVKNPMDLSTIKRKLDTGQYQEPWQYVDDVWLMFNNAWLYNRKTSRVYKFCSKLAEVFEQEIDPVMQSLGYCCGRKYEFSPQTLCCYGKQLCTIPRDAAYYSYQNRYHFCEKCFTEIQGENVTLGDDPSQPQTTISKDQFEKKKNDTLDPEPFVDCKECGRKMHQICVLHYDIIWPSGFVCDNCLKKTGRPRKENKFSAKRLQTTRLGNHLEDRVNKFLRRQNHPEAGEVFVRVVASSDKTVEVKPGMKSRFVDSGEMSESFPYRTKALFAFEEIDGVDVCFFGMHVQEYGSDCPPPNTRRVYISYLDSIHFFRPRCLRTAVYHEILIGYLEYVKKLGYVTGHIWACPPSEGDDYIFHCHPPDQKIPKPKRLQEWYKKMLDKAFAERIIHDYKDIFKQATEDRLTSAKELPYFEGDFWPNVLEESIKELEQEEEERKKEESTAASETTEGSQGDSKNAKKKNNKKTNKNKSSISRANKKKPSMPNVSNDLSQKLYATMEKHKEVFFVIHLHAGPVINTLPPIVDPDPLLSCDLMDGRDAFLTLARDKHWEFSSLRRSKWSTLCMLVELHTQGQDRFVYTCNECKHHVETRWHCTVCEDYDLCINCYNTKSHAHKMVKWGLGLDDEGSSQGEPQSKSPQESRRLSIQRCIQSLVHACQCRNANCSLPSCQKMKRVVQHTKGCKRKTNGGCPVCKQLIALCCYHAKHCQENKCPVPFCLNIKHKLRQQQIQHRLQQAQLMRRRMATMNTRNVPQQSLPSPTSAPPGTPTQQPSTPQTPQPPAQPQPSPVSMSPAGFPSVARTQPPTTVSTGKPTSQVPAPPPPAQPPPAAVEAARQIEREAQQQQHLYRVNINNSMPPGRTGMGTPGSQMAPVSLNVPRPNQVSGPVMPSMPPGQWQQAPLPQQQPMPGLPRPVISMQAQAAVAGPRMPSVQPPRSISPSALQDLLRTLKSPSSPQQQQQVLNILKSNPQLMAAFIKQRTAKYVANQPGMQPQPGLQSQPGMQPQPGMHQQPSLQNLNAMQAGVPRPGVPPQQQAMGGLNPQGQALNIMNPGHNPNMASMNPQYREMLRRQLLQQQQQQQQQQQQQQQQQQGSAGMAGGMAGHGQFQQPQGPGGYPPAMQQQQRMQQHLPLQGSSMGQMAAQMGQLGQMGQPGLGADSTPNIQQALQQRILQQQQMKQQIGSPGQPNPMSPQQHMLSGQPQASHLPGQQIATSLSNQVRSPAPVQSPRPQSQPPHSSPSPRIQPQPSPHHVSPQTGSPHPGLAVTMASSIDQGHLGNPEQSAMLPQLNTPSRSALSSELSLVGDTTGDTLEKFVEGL

[3] = biological target: Retinoblastoma protein (Rb), endogenous (UniProt P06400); test: co-immunoprecipitation (IP GFP, western blot Rb), band intensity given; settings: MCF7 cells
CBP, endogenous [4] = biological target: CBP, endogenous (UniProt Q92793); test: co-immunoprecipitation (IP GFP, western blot CBP), band intensity given; settings: MCF7 cells
DNMT3b, endogenous = DNMT3b, endogenous (UniProt Q9UBC3); test: co-immunoprecipitation (IP GFP, western blot DNMT3b), band intensity given; settings: MCF7 cells

UniProt P06400, sequence (P06400 whole entry): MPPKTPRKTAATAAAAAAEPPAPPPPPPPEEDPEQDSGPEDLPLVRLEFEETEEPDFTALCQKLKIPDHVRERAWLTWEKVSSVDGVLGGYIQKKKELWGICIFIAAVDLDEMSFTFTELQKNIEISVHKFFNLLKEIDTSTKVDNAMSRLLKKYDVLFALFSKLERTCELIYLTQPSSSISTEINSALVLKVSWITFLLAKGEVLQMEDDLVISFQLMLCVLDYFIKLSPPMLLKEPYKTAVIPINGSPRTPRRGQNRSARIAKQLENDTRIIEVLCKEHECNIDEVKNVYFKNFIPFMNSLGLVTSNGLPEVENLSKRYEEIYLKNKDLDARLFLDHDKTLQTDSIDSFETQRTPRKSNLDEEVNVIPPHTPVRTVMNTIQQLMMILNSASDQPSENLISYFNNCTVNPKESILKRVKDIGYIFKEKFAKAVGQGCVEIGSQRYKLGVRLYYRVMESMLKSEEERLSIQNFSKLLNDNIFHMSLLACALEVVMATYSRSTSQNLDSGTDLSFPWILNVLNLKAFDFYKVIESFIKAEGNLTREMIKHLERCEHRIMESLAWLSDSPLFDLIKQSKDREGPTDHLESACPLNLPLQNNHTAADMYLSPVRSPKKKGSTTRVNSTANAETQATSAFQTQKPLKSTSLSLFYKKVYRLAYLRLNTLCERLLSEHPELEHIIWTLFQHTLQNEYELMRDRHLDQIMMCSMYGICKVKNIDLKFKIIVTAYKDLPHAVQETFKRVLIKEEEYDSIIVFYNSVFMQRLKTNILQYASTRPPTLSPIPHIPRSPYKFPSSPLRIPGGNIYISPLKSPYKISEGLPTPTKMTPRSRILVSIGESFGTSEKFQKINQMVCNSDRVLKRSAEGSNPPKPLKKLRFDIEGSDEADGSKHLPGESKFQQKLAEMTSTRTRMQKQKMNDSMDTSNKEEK

response (fold pull down) [1]	response (fold pull down) (CBP, endogenous [2])	response [3]	response (CBP, endogenous [4])	response (DNMT3b, endogenous)	Substance
36	9.7	24.7	6	90	GFP-FoxM1 full length (FL) S715A; S724A
5.8	31	6.7	21	32.3	GFP-FoxM1 full length (FL) S715D; S724D
38	8.4	30.4	5.1	112	GFP-FoxM1 full length (FL) T596A
